Data as given in IntAct's records for PubMed 31515488.

How the values were obtained:
grn_human GRN = grn_human GRN (UniProt P28799)
gpix_human GP9 = gpix_human GP9 (UniProt P14770)
k1h1_human KRT31 = k1h1_human KRT31 (UniProt Q15323)
trip6_human TRIP6 = trip6_human TRIP6 (UniProt Q15654)
rgs20_human RGS20 = rgs20_human RGS20 (UniProt O76081)
tfp11_human TFIP11 = tfp11_human TFIP11 (UniProt Q9UBB9)
atrap_human AGTRAP = atrap_human AGTRAP (UniProt Q6RW13)
reep6_human REEP6 = reep6_human REEP6 (UniProt Q96HR9)
naif1_human NAIF1 = naif1_human NAIF1 (UniProt Q69YI7)
S100A1 = S100A1 (UniProt P23297)
zn496_human ZNF496 = zn496_human ZNF496 (UniProt Q96IT1)
zn446_human ZNF446 = zn446_human ZNF446 (UniProt Q9NWS9)
pgbd1_human PGBD1 = pgbd1_human PGBD1 (UniProt Q96JS3)
zsc32_human ZSCAN32 = zsc32_human ZSCAN32 (UniProt Q9NX65)
ccdb1_human CCNDBP1 = ccdb1_human CCNDBP1 (UniProt O95273)
jkip2_human JAKMIP2 = jkip2_human JAKMIP2 (UniProt Q96AA8)
nf2l2_human NFE2L2 = nf2l2_human NFE2L2 (UniProt Q16236)
stat3_human STAT3 = stat3_human STAT3 (UniProt P40763)
efs_human EFS = efs_human EFS (UniProt O43281)
odam_human ODAM = molecular target: T1, odam_human ODAM (UniProt A1E959)
T1 sequence: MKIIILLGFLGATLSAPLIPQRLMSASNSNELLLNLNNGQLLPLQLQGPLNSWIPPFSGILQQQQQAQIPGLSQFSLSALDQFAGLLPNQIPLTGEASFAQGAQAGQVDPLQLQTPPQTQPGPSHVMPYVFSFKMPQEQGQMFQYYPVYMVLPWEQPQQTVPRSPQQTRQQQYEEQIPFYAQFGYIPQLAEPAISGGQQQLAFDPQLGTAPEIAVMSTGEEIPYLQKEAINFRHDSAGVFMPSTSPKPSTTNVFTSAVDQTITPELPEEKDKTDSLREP

rhxf2_human RHOXF2 = molecular target: T2, rhxf2_human RHOXF2 (UniProt Q9BQY4)
T2 sequence: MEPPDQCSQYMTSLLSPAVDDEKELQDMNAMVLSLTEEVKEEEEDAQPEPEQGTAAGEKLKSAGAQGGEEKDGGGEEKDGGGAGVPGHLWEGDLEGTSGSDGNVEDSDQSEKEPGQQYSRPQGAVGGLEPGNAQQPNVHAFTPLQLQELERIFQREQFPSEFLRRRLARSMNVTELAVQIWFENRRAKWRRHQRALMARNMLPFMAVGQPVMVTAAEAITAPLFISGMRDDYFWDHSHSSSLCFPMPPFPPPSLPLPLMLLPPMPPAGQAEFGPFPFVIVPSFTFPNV

cdr2_human CDR2 = cdr2_human CDR2 (UniProt Q01850)
rpia_human RPIA = rpia_human RPIA (UniProt P49247)
prps2_human PRPS2 = prps2_human PRPS2 (UniProt P11908)
actb_human ACTB = actb_human ACTB (UniProt P60709)
ndka_human NME1 = ndka_human NME1 (UniProt P15531)
gnmt_human GNMT = gnmt_human GNMT (UniProt Q14749)
mtnb_human APIP = mtnb_human APIP (UniProt Q96GX9)
kctd1_human KCTD1 = kctd1_human KCTD1 (UniProt Q719H9)
frih_human FTH1 = frih_human FTH1 (UniProt P02794)
TSC22D1 = TSC22D1 (UniProt Q15714)
mbip1_human MBIP = mbip1_human MBIP (UniProt Q9NS73)
vac14_human VAC14 = vac14_human VAC14 (UniProt Q08AM6)
gas7_human GAS7 = gas7_human GAS7 (UniProt O60861)
dctp1_human DCTPP1 = dctp1_human DCTPP1 (UniProt Q9H773)
birc2_human BIRC2 = birc2_human BIRC2 (UniProt Q13490)
mif_human MIF = mif_human MIF (UniProt P14174)
pnma5_human PNMA5 = pnma5_human PNMA5 (UniProt Q96PV4)
thap1_human THAP1 = thap1_human THAP1 (UniProt Q9NVV9)
pnma1_human PNMA1 = pnma1_human PNMA1 (UniProt Q8ND90)
nud14_human NUDT14 = nud14_human NUDT14 (UniProt O95848)
cryaa_human CRYAA = cryaa_human CRYAA (UniProt P02489)
actg_human ACTG1 = actg_human ACTG1 (UniProt P63261)
tolip_human TOLLIP = tolip_human TOLLIP (UniProt Q9H0E2)
pygm_human PYGM = pygm_human PYGM (UniProt P11217)
ei2ba_human EIF2B1 = ei2ba_human EIF2B1 (UniProt Q14232)
ncoa5_human NCOA5 = ncoa5_human NCOA5 (UniProt Q9HCD5)
CCDC102B = CCDC102B (UniProt Q68D86)
dhb14_human HSD17B14 = dhb14_human HSD17B14 (UniProt Q9BPX1)
dnja3_human DNAJA3 = dnja3_human DNAJA3 (UniProt Q96EY1)
edad_human EDARADD = edad_human EDARADD (UniProt Q8WWZ3)
lonf1_human LONRF1 = lonf1_human LONRF1 (UniProt Q17RB8)
cdd_human CDA = cdd_human CDA (UniProt P32320)
ca050_human C1orf50 = ca050_human C1orf50 (UniProt Q9BV19)
lztl1_human LZTFL1 = lztl1_human LZTFL1 (UniProt Q9NQ48)
rnf14_human RNF14 = rnf14_human RNF14 (UniProt Q9UBS8)
trim1_human MID2 = trim1_human MID2 (UniProt Q9UJV3)
dtx2_human DTX2 = dtx2_human DTX2 (UniProt Q86UW9)
rn115_human RNF115 = rn115_human RNF115 (UniProt Q9Y4L5)
otub1_human OTUB1 = otub1_human OTUB1 (UniProt Q96FW1)
tri23_human TRIM23 = tri23_human TRIM23 (UniProt P36406)
sdcb1_human SDCBP = sdcb1_human SDCBP (UniProt O00560)
prdc1_human PRTFDC1 = prdc1_human PRTFDC1 (UniProt Q9NRG1)
ubql1_human UBQLN1 = ubql1_human UBQLN1 (UniProt Q9UMX0)

Measured: effect of a mutation on the interaction

FAD synthase (Homo sapiens), Q8NFF5 R228H, sequence (Q8NFF5 whole entry R228H): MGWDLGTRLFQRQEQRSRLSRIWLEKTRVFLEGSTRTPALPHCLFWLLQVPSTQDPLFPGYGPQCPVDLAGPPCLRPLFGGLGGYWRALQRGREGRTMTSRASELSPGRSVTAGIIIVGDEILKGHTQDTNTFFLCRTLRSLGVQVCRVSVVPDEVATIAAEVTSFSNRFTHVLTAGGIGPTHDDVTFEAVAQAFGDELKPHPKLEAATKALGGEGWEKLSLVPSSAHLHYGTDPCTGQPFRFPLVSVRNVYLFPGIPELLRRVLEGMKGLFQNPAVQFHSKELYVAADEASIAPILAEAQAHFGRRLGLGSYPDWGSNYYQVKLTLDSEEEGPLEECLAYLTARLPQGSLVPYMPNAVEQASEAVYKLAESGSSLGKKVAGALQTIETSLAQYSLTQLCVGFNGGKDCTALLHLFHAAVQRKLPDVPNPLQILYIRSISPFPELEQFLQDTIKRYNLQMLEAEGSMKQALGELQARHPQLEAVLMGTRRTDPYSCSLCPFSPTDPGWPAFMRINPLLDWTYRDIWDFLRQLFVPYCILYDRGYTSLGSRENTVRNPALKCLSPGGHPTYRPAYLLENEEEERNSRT
Zinc finger and SCAN domain-containing protein 22 (Homo sapiens), P10073 A321V, sequence (P10073 whole entry A321V, the tested form may be a part): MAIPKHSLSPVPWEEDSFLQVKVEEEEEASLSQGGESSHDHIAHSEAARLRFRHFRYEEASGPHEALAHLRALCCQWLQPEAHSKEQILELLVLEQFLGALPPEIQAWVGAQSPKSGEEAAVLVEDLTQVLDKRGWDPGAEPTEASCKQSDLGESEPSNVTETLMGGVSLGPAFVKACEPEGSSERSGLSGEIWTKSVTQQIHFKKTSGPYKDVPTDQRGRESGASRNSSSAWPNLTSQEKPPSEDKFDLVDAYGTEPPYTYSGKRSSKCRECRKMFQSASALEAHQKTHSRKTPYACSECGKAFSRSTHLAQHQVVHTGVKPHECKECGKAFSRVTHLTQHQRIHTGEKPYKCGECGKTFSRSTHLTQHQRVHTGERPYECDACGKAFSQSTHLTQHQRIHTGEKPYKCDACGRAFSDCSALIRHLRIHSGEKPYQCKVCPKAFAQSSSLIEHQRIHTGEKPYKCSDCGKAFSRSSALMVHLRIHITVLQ
Homeobox protein Hox-A1 (Homo sapiens), P49639 S98R, sequence (P49639 whole entry S98R): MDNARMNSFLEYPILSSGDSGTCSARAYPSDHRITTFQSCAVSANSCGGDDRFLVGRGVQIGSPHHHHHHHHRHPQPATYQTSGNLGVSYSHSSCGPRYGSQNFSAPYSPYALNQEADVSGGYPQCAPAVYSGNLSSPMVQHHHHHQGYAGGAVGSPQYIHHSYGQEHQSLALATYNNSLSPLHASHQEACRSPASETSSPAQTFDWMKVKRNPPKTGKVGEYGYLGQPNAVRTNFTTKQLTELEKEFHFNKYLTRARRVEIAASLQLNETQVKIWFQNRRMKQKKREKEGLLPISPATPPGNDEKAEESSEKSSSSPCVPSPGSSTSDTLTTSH
Troponin T, slow skeletal muscle (Homo sapiens), P13805 R39S, sequence (P13805 whole entry R39S): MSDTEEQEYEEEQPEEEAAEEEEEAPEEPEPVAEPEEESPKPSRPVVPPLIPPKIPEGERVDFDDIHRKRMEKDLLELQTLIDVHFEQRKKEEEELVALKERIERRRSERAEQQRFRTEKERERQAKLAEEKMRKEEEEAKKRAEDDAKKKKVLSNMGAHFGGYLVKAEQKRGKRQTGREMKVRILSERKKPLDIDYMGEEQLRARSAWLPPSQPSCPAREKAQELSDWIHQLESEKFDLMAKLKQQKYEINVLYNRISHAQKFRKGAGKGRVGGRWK
Ubiquitin-conjugating enzyme E2 D4 (Homo sapiens), Q9Y2X8 G27S, sequence (Q9Y2X8 whole entry G27S): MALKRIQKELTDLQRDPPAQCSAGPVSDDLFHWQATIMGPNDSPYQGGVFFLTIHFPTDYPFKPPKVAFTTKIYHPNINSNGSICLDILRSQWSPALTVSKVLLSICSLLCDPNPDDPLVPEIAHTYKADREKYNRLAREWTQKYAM
Tyrosine-protein kinase Blk (Homo sapiens), P51451 A71T, sequence (P51451 whole entry A71T): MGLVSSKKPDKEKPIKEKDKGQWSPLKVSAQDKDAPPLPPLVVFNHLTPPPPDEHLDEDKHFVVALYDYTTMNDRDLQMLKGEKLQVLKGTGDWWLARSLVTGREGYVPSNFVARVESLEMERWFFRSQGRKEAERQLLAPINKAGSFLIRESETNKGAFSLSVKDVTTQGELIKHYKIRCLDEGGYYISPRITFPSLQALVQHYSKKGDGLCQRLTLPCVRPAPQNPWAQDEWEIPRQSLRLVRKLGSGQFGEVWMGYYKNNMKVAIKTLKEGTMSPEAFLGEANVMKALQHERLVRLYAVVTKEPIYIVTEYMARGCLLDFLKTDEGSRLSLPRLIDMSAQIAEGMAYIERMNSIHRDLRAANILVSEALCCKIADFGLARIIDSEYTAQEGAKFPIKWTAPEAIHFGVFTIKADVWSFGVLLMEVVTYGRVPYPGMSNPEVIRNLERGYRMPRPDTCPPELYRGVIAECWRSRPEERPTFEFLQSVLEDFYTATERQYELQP
S100A1, sequence (P23297 whole entry): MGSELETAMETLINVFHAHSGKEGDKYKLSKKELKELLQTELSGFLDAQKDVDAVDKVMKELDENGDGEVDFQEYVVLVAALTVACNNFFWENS
dctp1_human DCTPP1, sequence (Q9H773 whole entry): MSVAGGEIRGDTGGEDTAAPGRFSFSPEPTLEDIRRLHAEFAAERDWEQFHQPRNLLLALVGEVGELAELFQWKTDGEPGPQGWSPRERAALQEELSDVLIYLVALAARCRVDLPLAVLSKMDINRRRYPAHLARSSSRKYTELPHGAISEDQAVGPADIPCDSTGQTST
zn496_human ZNF496, sequence (Q96IT1 whole entry): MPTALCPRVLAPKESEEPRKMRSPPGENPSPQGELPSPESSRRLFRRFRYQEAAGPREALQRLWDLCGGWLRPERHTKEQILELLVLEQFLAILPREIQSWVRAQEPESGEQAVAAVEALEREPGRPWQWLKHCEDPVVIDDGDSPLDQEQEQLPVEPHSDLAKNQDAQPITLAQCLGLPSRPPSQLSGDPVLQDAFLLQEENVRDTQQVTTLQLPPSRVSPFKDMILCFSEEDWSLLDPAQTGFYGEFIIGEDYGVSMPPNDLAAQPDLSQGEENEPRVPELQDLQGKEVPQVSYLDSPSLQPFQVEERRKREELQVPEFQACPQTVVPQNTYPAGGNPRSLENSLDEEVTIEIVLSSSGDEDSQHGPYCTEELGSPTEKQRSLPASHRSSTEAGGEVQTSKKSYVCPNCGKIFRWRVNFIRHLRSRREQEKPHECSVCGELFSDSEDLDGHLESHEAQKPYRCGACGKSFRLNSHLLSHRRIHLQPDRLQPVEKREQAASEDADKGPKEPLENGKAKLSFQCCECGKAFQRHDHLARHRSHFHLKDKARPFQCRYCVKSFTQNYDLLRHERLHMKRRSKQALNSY
thap1_human THAP1, sequence (Q9NVV9 whole entry): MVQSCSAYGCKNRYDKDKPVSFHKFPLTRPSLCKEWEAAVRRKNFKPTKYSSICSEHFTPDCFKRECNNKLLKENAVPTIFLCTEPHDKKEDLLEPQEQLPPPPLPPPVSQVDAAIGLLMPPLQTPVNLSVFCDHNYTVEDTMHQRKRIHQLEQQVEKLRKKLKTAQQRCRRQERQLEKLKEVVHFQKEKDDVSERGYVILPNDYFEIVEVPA
tfp11_human TFIP11, sequence (Q9UBB9 whole entry): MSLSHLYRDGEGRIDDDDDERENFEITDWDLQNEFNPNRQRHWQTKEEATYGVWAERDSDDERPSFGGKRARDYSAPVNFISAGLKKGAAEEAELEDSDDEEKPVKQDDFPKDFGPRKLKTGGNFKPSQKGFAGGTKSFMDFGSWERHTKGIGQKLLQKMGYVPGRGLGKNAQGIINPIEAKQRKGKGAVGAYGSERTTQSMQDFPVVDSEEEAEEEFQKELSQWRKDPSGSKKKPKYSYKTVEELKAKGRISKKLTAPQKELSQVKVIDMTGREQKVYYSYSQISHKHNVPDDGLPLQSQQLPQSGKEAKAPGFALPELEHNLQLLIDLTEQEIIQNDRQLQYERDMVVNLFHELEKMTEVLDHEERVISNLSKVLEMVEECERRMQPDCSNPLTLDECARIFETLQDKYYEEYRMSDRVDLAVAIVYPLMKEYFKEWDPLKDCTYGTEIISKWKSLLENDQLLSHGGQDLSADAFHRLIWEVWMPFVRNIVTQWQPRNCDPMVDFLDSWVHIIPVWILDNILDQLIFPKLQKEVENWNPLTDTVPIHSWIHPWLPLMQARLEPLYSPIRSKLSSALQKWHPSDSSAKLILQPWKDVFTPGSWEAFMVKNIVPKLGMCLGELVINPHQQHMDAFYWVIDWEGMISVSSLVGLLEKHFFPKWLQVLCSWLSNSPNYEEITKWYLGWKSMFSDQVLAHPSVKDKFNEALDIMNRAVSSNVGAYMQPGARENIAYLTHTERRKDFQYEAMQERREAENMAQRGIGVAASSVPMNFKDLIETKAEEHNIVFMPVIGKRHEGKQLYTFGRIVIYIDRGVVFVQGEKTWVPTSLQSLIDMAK
mbip1_human MBIP, sequence (Q9NS73 whole entry): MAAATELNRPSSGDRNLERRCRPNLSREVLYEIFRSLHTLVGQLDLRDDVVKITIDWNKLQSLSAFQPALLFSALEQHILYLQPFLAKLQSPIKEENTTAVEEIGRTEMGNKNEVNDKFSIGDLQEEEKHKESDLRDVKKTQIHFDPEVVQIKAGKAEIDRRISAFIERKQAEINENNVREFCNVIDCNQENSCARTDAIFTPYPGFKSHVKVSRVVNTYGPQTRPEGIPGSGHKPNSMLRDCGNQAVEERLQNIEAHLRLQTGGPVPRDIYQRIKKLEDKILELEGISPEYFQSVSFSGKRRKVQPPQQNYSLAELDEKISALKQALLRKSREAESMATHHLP
ndka_human NME1, sequence (P15531 whole entry): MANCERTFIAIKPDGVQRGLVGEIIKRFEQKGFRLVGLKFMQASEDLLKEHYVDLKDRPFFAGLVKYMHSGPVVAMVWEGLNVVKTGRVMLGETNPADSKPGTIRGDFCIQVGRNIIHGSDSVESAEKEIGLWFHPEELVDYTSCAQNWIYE
Protein S100-A2 (Homo sapiens), P29034 S62N, sequence (P29034 whole entry S62N): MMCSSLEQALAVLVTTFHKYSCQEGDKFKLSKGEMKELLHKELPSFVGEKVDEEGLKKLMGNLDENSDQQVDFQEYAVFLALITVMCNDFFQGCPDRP

Homeobox protein Hox-A1 (Homo sapiens), P49639 S98R
with no effect: grn_human GRN | gpix_human GP9 | k1h1_human KRT31 | trip6_human TRIP6 | rgs20_human RGS20

Atypical kinase COQ8A, mitochondrial (Homo sapiens), Q8NI60 D100Y
with no effect: tfp11_human TFIP11 | atrap_human AGTRAP | reep6_human REEP6

Transcription factor SOX-14 (Homo sapiens), O95416 A107G
with no effect: naif1_human NAIF1

Protein S100-A2 (Homo sapiens), P29034 S62N
with no effect: S100A1

Zinc finger and SCAN domain-containing protein 22 (Homo sapiens), P10073 A321V
with no effect: zn496_human ZNF496 | zn446_human ZNF446 | pgbd1_human PGBD1 | zsc32_human ZSCAN32

Troponin T, slow skeletal muscle (Homo sapiens), P13805 R39S
with no effect: ccdb1_human CCNDBP1 | jkip2_human JAKMIP2 | nf2l2_human NFE2L2

Tyrosine-protein kinase Blk (Homo sapiens), P51451 A71T
with no effect: stat3_human STAT3 | efs_human EFS

Toll-interacting protein (Homo sapiens) (from UniProt Q9H0E2) A222S
with no effect: odam_human ODAM | rhxf2_human RHOXF2

Protein N-terminal glutamine amidohydrolase (Homo sapiens), Q96HA8 A52G
not listed: grn_human GRN | gpix_human GP9 | k1h1_human KRT31 | trip6_human TRIP6 | rgs20_human RGS20 | tfp11_human TFIP11 | atrap_human AGTRAP | reep6_human REEP6 | naif1_human NAIF1 | S100A1 | zn496_human ZNF496 | zn446_human ZNF446 | pgbd1_human PGBD1 | zsc32_human ZSCAN32 | ccdb1_human CCNDBP1 | jkip2_human JAKMIP2 | nf2l2_human NFE2L2 | stat3_human STAT3 | efs_human EFS | odam_human ODAM | rhxf2_human RHOXF2 | rnf14_human RNF14 | trim1_human MID2 | dtx2_human DTX2 | rn115_human RNF115 | otub1_human OTUB1 | tri23_human TRIM23 | sdcb1_human SDCBP | prdc1_human PRTFDC1 | ubql1_human UBQLN1
with no effect: all other assays above

Ubiquitin-conjugating enzyme E2 D4 (Homo sapiens), Q9Y2X8 G27S
with no effect: rnf14_human RNF14 | trim1_human MID2 | dtx2_human DTX2 | rn115_human RNF115 | otub1_human OTUB1

FAD synthase (Homo sapiens), Q8NFF5 R228H
with no effect: tri23_human TRIM23 | sdcb1_human SDCBP | prdc1_human PRTFDC1

Thioredoxin domain-containing protein 12 (Homo sapiens), O95881 T80M
with no effect: ubql1_human UBQLN1
